What was measured:
[1] = biological target: Ded1 wild type (Saccharomyces cerevisiae, UniProt P06634 1-604); assay: EMSA; 3 mM AMP-PNP; challenged with unlabeled 41mer RNA; EMSA: 50 mM Tris pH 7.8, 60 mM NaCl, 2 mM MgCl2, 0.1 mg/mL BSA, 5% glycerol, 1 U/uL RNasin Plus, 0.01% NP-40, 1 mM DTT; 900 nM Ded1, 10 nM RNA, 20 min room temperature, then 41mer competitor RNA (27 uM solution) 1 min before 7% native PAGE at 4 C; conditions: protein: recombinant; tags: His-tag removed with preScission protease; N-terminal GP from vector; single-stranded
[2] = biological target: Xpo1;Ran[GTP] Q71L (Saccharomyces cerevisiae;Saccharomyces …, UniProt P30822;P32835 1-1071;1-219, |Q71L); assay: EMSA; no Ded1; no significant supershift; EMSA: 50 mM Tris pH 7.8, 60 mM NaCl, 2 mM MgCl2, 0.1 mg/mL BSA, 5% glycerol, 1 U/uL RNasin Plus, 0.01% NP-40, 1 mM DTT; 900 nM Ded1, 10 nM RNA, 20 min room temp
[3] = biological target: Ded1 sNES (Saccharomyces cerevisiae, UniProt P06634 =D+1-604, A2D;E6K;Q7K;V8F;Q9G;N10T;internal_change); assay: EMSA; 3 mM AMP-PNP; bound to the same extent as wild-type Ded1; EMSA: 50 mM Tris pH 7.8, 60 mM NaCl, 2 mM MgCl2, 0.1 mg/mL BSA, 5% glycerol, 1 U/uL RNasin Plus, 0.01% NP-40, 1 mM DTT; 900 nM Ded1, 10 nM RNA, 20 min room temperature, then 41mer competitor RNA (27 uM solution) 1 min before 7% native PAGE at 4 C; conditions: protein: recombinant; tags: His-tag removed with preScission protease; N-terminal GP from vector; single-stranded

B1: 25mer FAM-labeled ssRNA (ssRNA)
RNA: CGAAUUCAAAACAAAACAAAACUAG
**Q.** Which results are given for B1?
**A.** binding result [1]: binds; binding result [2]: no binding; binding result [3]: binds
